{"source": "paper doi:10.1101/2021.03.08.434344", "about": "(bioRxiv, 2021)", "biological_target": "the molecule itself", "test": "cryo-EM structure", "data": [{"protein": "Homo sapiens ferritin (apoferritin) (natural protein, human, UniProt Q8TD27 1-165, looked up) MTTASTSQVRQNYHQDSEAAINRQINLELYASYVYLSMSYYFDRDDVALKNFAKYFLHQSHEEREHAEKLMKLQNQRGGRIFLQDIKKPDCDDWESGLNAMECALHLEKNVNQSLLEFPSPISPSPSCWHHYTTNRPQPQHHLLRPRRRKRPHSIPTPILIFRSP", "values": [{"measurement": "binding result", "result": "binds"}]}]}
